Experiment [1] deals with T1, His-tagged c-Myc (human, UniProt P01106 1-454, labelled with the NT-647-NHS dye).
T1 construct: c-Myc; plasmid constructed by Tsingke Biotechnology Co., Ltd. (Beijing); also called recombinant c-Myc protein; source: bacterial BL21 cells, purified (Ni-NTA agarose)
In words: MST; Monolith NT.115; NT-647-NHS-labelled c-Myc held constant (416 nM stock mixed 1:1), MDK in 16 serial dilutions; PBSP (1x PBS + 0.1% Pluronic F-127); standard treated capillaries. To be noted: both partners purified.

Experiment [2] addresses T1, His-tagged c-Myc. In words: MST; as the MST of MDK and c-Myc, after the addition of 1 µM ACT001. To be noted: both partners purified.

Broadly, the Kd is the concentration at which binding is half-saturated.

T1 sequence (P01106 whole entry): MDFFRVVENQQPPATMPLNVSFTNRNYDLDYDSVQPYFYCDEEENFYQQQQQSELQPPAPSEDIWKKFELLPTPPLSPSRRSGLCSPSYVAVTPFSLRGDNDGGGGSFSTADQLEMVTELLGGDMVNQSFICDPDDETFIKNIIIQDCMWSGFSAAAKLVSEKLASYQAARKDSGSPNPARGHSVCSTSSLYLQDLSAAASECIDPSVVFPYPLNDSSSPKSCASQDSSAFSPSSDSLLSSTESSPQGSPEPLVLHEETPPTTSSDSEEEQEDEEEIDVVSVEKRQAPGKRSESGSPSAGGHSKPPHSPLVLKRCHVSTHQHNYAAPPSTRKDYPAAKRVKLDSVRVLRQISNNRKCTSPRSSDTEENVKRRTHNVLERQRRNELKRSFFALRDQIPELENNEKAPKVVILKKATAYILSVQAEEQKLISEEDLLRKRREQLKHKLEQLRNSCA

B1: Recombinant human MDK protein (natural protein, UniProt P21741 21-143, looked up)
chain: VAKKKDKVKKGGPGSECAEWAWGPCTPSSKDCGVGFREGTCGAQTQRIRCRVPCNWKKEFGADCKYKFENWGACDGGTGTKVRQGTLKKARYNAQCQETIRVTKPCTPKTKAKAKAKKGKGKD
notes: recombinant human midkine, bought; also called midkine; source: bought: Zeye Biotechnology Corporation (ZY631H02P, Shanghai)
On to B1, for which the Kd in the experiment with His-tagged c-Myc [1] worked out at 18.8 nM; in the experiment with His-tagged c-Myc [2] it was 1540 nM.

The record behind these values is PMC12137620, “Targeting the MDK/c‐Myc complex to overcome temozolomide resistance in glioma” (Clinical and Translational Medicine, 2025).
